Measurements from patent US20070077212A1, “Protein with activity of hydrolyzing amylopectin, starch, glycogen and amylose, gene encoding the same, cell expressing the same, and production method thereof” (LIFENZA CO., LTD., priority 2004, published 2007).
“Also recorded” adds a separate entry of the source.

How the values were obtained:
Type in all cases: biochemical
[1] = Activity staining on starch-containing PAGE gel; settings: 30 min at 37° C.
Description: For sodium dodecyl sulfate-polyacrylamide gel electrophoresis (SDS-PAGE), protein samples were loaded onto 10% polyacrylamide gel in Tris-glycine buffer (pH 8.8). The polyacrylamide gel contained 1% starch in order to detect whether the protein samples could degrade starch polysaccharide. After completion of the electrophoresis, SDS was removed by washing the gel with 50 mM Tris-HCl buffer (pH 8.0) and a 20% 2-propanol solution for 1 hour. The gel was immersed in a reaction buffer (50 mM sodium acetate, 5 mM CaCl2, pH 5) at 37° C. for […] and then in an iodide solution (0.3% iodide, 3% potassium iodide) for 10 min, and washed with distilled water. The starch hydrolyzing activity was identified by the appearance of a clear zone against a brown background.
Following IPTG induction in E. coli, the cells were harvested, and disrupted by sonication. Proteins were purified using His-tagged affinity column and analyzed by SDS-PAGE (10%) (FIG. 3, lane 1). The band for the mainly expressed protein corresponded to 73 kDa (LSA+His-tag). To examine the ability of the purified protein to degrade polysaccharides such as starch, electrophoresis was carried out using a PAGE gel containing starch. After completion of the electrophoresis, the gel was allowed to stand for 30 min at 37° C. and stained with an iodine solution. […]

[2] = Relative substrate specificity of LSA enzyme: starch
Description: (§1) The reducing value of the carbohydrolase was determined by a DNS (3,5-dinitrosalicylic acid) method in combination with a copper-bicinchoninate method. That is, 100 μl of copper-bicinchoninate was added to 100 μl of an enzyme solution, and allowed to react at 80C. for 35 min, followed by being cooled for about 15 min. Absorbance was measured at 560 nm.

[3] = Relative substrate specificity of LSA enzyme: pullulan
Description: as §1

[4] = Effect of metal ions, chelating agents and denaturants on LSA enzyme activity
Description: as §1
Effects of EDTA, EGTA and metal ions on enzyme activity were measured. EDTA and EGTA were each used at a final concentration of 1 mM. As for metal ions, they included ZnCl2, CuS04, CaCl2 and MgCl2 and were used at a final concentration of 5 mM. The enzyme activity was also measured in the presence of dodesyl sulfate (SDS, 0.1%, 0.5%, 1%, 2%), urea (2M), acetone (0-80%) and ethanol (0-70%). For the measurement, the enzyme was allowed to react at 37° C. for 30 min with 2% starch as a substrate.

[5] = Assay for optimal pH and temperature and stability of enzyme
Description: as §1
The enzyme LSA was assayed for optimal pH by measuring reaction rates in the range of pH 3-9 at intervals of pH 1.0. For this purpose, 2OmM citrate phosphate buffer (pH 4.0), citrate/phosphate buffer (pH 5-6) and sodium phosphate buffer (pH 7-9) were used. After reaction at 37° C. for […], the carbohydrolase activity of the enzyme was determined by a DNS method. Also, the pH stability of the enzyme was measured after the enzyme was added to each buffer and allowed to stand for 3 hours at 22° C.
The optimal temperature of the enzyme was determined by measuring the reaction rates of the enzyme which had been allowed to stand for 30 min at various temperatures (20-80° C., 10C. interval). […] 1% (w/v) starch was used as a substrate in determining the activity and stability of the enzyme.

[6] = Relative substrate specificity of LSA enzyme: glycogen
Description: as §1

[7] = Relative substrate specificity of LSA enzyme: amylose
Description: as §1

[8] = TLC analysis of starch hydrolysis products; settings: 2% starch
Description: (§2) Subsequently, the malto oligosaccharides were degraded into maltopentaose and lower oligosaccharides.

[9] = Relative substrate specificity of LSA enzyme: alpha-cyclodextrin
Description: as §1

[10] = Relative substrate specificity of LSA enzyme: dextran
Description: as §1

[11] = TLC analysis of reaction with maltooligosaccharide series; settings: mixture of maltooligosaccharide series
Description: FIG. 8 is a photograph of a TLC result showing the enzymatic activity of the LSA of the present invention in which starch samples (1% w/v) are analyzed, along with maltodextrin (Mn), before and after being hydrolyzed by the enzyme (lanes 1 and 2 in panel A, respectively) and maltooligosaccharide samples (1% w/v) are analyzed after purified LSA is allowed to react with a series of maltooligosaccharides including G1 (glucose) to G7 (maltoheptaose) (lanes 1 to 7 in panel B, respectively).
as §2

[12] = Relative substrate specificity of LSA enzyme: amylodextrin
Description: as §1

[13] = Relative substrate specificity of LSA enzyme: amylopectin
Description: as §1

B1: LSA: carbohydrolase derived from Lipomyces starkeyi, amino acid sequence SEQ. ID. No. 1, expressed in E. coli; hydrolyzes amylopectin, starch, glycogen and amylose (protein)
chain: MLLINFFIAVLGVISLSPIVVARYILRRDCTTVTVLSSPESVTSSNHVELASHEMCDSTLSASLYIYNDDYDKIVTLYYLTSSGTTGSVTASYSSSLSNNWELWSLSAPAADAVEITGASYVDSDASATYATSFDIPLTTTTTSSSSASATSTSSLTTTSSVSISVSVPTGTAANWRGRAIYEIVTDRFARTDGSTTYLCDVTDRVYCGGSYEGIINMLDYIEGMGFTAIWISPIVENIPDDTGYGYAYHGYWMKDIFALNTNFGTADDLIALATELHNRGMYLMVDIVVNHFAFSGSHADVDYSEYFPYSSEDYFHSFCWITDYSNETNVEQCWLGDDTVPLVDVNTELDTVKSEYQSWVEELIANYSIDGLRIDTVKHVEMDFWAPFEEAAGIYAVGEVFDGDPSYTCPYEENLDGVLNYPVYYPVVSAFESVSGSVSSLVDMIDTLKSECTDTTLLGSFLENEDNPRFPSYTSDESLIKNAIAFTMLSDGIPIIYYGEEQGLNGGNDPYNREALWLTGYSTTSTFYKYIASLNEIRNEAIYKDDTYLTYENWVIYSDSTTIAMRKGFTGNEIITVLSNLGTSGSSYTLTLSNTGYTASSVVYEILTCTAVTVDSSGNLAVPMSSGLPKVFYEESQLVGSGICSM
modifications: E. coli BL21(DE3)pLysS
notes: ID; No. 1, expressed in E. coli; hydrolyzes amylopectin, starch, glycogen and amylose
With B1 the “starch degradation on gel, iodine staining” value [1] was “clear zone”, the “degradation of starch (soluble) (in words)” value [2] was “strongly” and the “Relative Activity (%)” value ([2]; substrate Starch) was 100%. The “degradation of pullulan (in words)” value [3] was “degrade; also recorded: weakly”, the “Relative Activity (%)” value ([3]; substrate Pullulan, relative to starch) was 3% and the “effect on enzyme activity” value ([4]; 1 mM EDTA) was “inhibited”. The “increase of starch degradation activity” value ([4]; 5 mM Ca+) was “about 315%”, the “effect on starch degradation activity” value ([4]; 5 mM Cu^2+) was “inhibited” and the “increase of starch degradation activity” value ([4]; 5 mM Mg^2+) was ~220%. For the same molecule, the increase in activity ([4]; 10-20% ethanol solution) was 1.25-1.33 fold, the increase in activity ([4]; 10-40% acetone) was 1.03-1.22 fold and the “activity relative to optimal activity” value ([4]; 60% acetone) was “lower than 50%”. For the same molecule, the “activity relative to optimal activity” value ([4]; 60% ethanol) was “lower than 50%”, the “Relative Activity (%)” value ([4]; Acetone 20%) was 122% and the “Relative Activity (%)” value ([4]; Acetone 30%) was 115%. For the same molecule, the “Relative Activity (%)” value ([4]; CaCl2 5 mM) was 315%, the “Relative Activity (%)” value ([4]; CaCl2 + EDTA 5 mM/1 mM) was 185% and the “Relative Activity (%)” value ([4]; CuSO4 5 mM) was 20%. For the same molecule, the “Relative Activity (%)” value ([4]; CuSO4 + EDTA 5 mM/1 mM) was 12%, the “Relative Activity (%)” value ([4]; EDTA 1 mM) was 46% and the “Relative Activity (%)” value ([4]; EGTA 1 mM) was 105%. The “effect on enzyme activity” value ([4]; EGTA (1 mM; EGTA-containing solution)) was “not inhibited; also recorded: not influenced”, the “Relative Activity (%)” value ([4]; MgCl2 5 mM) was 220% and the “Relative Activity (%)” value ([4]; MgCl2 + EDTA 5 mM/1 mM) was 129%. For the same molecule, the “effect on starch degradation activity” value ([4]; SDS) was “completely inhibited”, the “Relative Activity (%)” value ([4]; SDS 0.1%) was 66% and the “Relative Activity (%)” value ([4]; SDS 0.5%) was 49%. For the same molecule, the “Relative Activity (%)” value ([4]; SDS 1%) was 24%, the “Relative Activity (%)” value ([4]; SDS 2%) was 12% and the “Relative Activity (%)” value ([4]; Urea 2M) was 115%. The “effect on starch degradation activity” value ([4]; acetone) was “increased”, the “Relative Activity (%)” value ([4]; additive: None, 2% starch, 37° C., 30 min) was 100% and the “effect on starch degradation activity” value ([4]; urea) was “increased”. For the same molecule, the “optimum pH” value [5] was 6 pH, the “pH range in which activity is 90% of its maximum” value [5] was 5-8 pH and the “pH range in which amylase activity is kept stably” value [5] was 5-8 pH. The “temperature of optimal activity” value ([5]; 1% (w/v) starch) was 40 °C, the “temperature range of stability” value ([5]; 1% (w/v) starch) was 20-50 °C and the “activity after incubation, relative to stable temperatures” value ([5]; incubation at 60° C. for 3 hours) was 70%. The “degradation of glycogen (in words)” value [6] was “strongly”, the “Relative Activity (%)” value ([6]; substrate Glycogen, relative to starch) was 80% and the “degradation of amylose (in words)” value [7] was “weakly”. For the same molecule, the “Relative Activity (%)” value ([7]; substrate Amylose, relative to starch) was 41%, the “hydrolysis products, early stage of reaction” value [8] was “oligosaccharides larger than maltopentaose were produced” and the “hydrolysis products, final” value [8] was “maltotriose and maltotetraose were predominant”. For the same molecule, the “degradation of a-cyclodextrin (in words)” value [9] was “degrade; also recorded: weakly”, the “Relative Activity (%)” value ([9]; substrate alpha-CD, relative to starch) was 4% and the “degradation of dextran (in words)” value [10] was “degrade; also recorded: weakly”. The “Relative Activity (%)” value ([10]; substrate Dextran, relative to starch) was 4%, the “degradation products of G6” value [11] was “G2+G4 or into G3+G3” and the “hydrolysis of G2” value [11] was “did not hydrolyze”. The “hydrolysis of G3” value [11] was “did not hydrolyze”, the “degradation of amylodextrin (in words)” value [12] was “weakly” and the “Relative Activity (%)” value ([12]; substrate Amylodextrin, relative to starch) was 17%. The “degradation of amylopectin (in words)” value [13] was “strongly” and the “Relative Activity (%)” value ([13]; substrate Amylopectin, relative to starch) was 141%.
